This is an account of results in US20210284749A1 (ABL BIO, published 2021).

In assay [1] the target is T1, mouse BCMA (1-49) fused to the Fc region of human IgG1 (mouse; human, UniProt O88472 1-49).
T1 construct: Sino Biological Inc. 50076-M01H; also called 50076-M01H; not shown: Fc region of human IgG1
T1 chain: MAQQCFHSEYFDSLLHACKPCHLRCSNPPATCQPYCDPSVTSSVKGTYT
Description: ELISA, 100 ng coated antigen. How it is done:
(§1) 100 ng of human, monkey, mouse, and rat BCMA antigens prepared in Example 1.1 were coated on the bottom of the plate, and then coated with 3% BSA to block nonspecific binding. Using the selected anti-BCMA IgG antibodies as primary antibodies, and the anti-human Fab HRP (1:20000 dilution) as a secondary antibody, ELISA assay was performed as described in Example 1.3.
(§2) Absorbancies at 450 nm measured with a microplate reader are shown in FIG. 3, and half maximal effective concentrations (EC₅₀) (nM) are shown in Table 9.
On the technique in general: An ELISA detects its analyte on a solid surface through an enzyme-linked reagent.

In assay [2] the target is T2, rat BCMA (1-49) fused to the Fc region of human IgG1 (rat; human).
T2 construct: Sino Biological Inc. 80156-R01H; also called 80156-R01H; not shown: Fc region of human IgG1
T2 chain: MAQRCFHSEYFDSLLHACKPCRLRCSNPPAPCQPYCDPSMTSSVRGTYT
The assay can be described thus: ELISA, 100 ng coated antigen. The method, then:
as §1, §2

The target in assay [3] is T3, human monomeric BCMA antigen (human, UniProt Q02223 5-54, limits assumed).
T3 construct: also called recombinant human BCMA antigens
T3 chain: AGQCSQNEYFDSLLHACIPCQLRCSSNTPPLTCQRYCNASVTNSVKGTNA
Description: SPR (Biacore T200), antibody captured on protein A chip, antigen 6.25-100 nM. How it is done: In particular, the prepared antibodies were diluted with a 1×HPS-EP buffer (GE Healthcare, BR-1006-69). The target antigen-binding affinity analysis was performed using a Biacore T200 (GE Healthcare). The antibodies were flowed onto a protein A chip at a contact time of 60 seconds, a stabilization time of 30 seconds, and a flow rate of 30 μl/min until a capture level reached 128 RU (Response Unit), thereby preparing an antibody-captured protein A chip.
The antigen was sequentially diluted with a 1×HPS-EP buffer, by 2-fold each time, from 100 nM to 6.25 nM, thereby preparing a total of […] samples. The 1×HPS-EP buffer was used as a negative control group (blank).
The prepared antigen was flowed across the antibody-captured protein A chip at a flow rate of 30 μl/min for an association time of 60 seconds, followed by a disassociation phase for 180 seconds. Regeneration was performed with a 10-mM Glycine-HCL (pH 1.5) buffer (GE Healthcare, BR-1003-54) at a flow rate of 30 μl/min for a contact time of 30 seconds.

Assay [4] deals with T4, human BCMA expressed on cell surface (H929, OPM-2, CHOK1-hBCMA cells) (human, UniProt Q02223 1-184).
T4 construct: also called cell-surface BCMA; BCMA on cell surface
T4 sequence: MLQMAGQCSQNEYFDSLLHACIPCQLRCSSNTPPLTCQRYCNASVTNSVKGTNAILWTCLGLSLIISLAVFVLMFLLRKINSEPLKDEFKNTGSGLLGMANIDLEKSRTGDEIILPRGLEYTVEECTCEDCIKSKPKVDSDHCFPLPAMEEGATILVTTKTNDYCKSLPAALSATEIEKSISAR
The assay can be described thus: FACS on H929 cells, 10 µg/ml antibody, anti-human Fc-FITC; open histogram shifted right of the filled control. The method, then:
Multiple myeloma cancer cells H929 (ATCC, CRL9068™) and OPM-2 cell line (DSMZ, ACC 50), which are known to express BCMA, were prepared, and human BCMA-overexpressed CHOK1-hBCMA cell line (constructed by ABIBio) were prepared.
10 μg/ml of the seven IgG antibodies (B58, 5A6, 5D5, 5B5, 1H, 2G, and 5G) purified in Example 1.4 was added to the prepared cells, incubated at 4° C. for 1 hour, and then washed two times with a PBS buffer solution. The anti-human Fc-FITC was diluted in 1:400, incubated at 4° C. for 1 hour, and then washed with a PBS buffer solution. These processes were repeated. In FIGS. 2A and 2B, MFI indicates mean fluorescence intensity.

The target of assay [5] is T1, mouse BCMA (1-49) fused to the Fc …. The assay can be described thus: ELISA on 100 ng coated mouse BCMA, antibody titrated, anti-human Fab HRP, absorbance 450 nm. How it is done:
as §1, §2

Assay [6] has as its target T5, recombinant human BCMA (ELISA antigen, construct not specified) (human, UniProt Q02223 1-54).
T5 construct: Fc 1-51; Fc/His 1-51; Fc 4-48) was coated in these ELISAs; also called recombinant BCMA; recombinant protein
T5 sequence: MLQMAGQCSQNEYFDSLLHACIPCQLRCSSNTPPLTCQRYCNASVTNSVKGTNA
Description: ELISA on coated recombinant human BCMA, antibody titrated, HRP anti-Fab detection, absorbance 450 nm. How it is done:
Specific binding abilities of the anti-BCMA IgG antibodies isolated in Example 1.4 to recombinant BCMA protein were analyzed by ELISA.
Using recombinant human BCMA or monkey BCMA as an antigen, and HRP-conjugated Fab polychronal antibody reagent (Pierce, 31414) as a secondary antibody, ELISA was performed as described in Example 1.3.

B1: anti-BCMA IgG antibody 5D5 (antibody, V domains shown)
VH: EVQLLESGGGLVQPGGSLRLSCAASGFTFSDYGLSWVRQAPGKGLEWVSLIDSSGSSTFYADSVKGRFTISRDNSKNTLYLQMNSLRAEDTAVYYCAKEHGLFDSWGQGTLVTVSS
VL: EIVLTQSPGTLSLSPGERATLSCKASQDIDDDINWYQQKPGQAPRLLIYDASLRATGIPDRFSGSGSGTDFTLTISRLEPEDFAVYYCQQSLRTPITFGQGTKLEIKR
notes: also called 5D5 WT; 5D5 antibody
Regarding B1, the EC50 (usually the concentration at which the effect is half-maximal) in assay [1] worked out at 150 nM; in assay [2], 98 nM. Binding in assay [3] was characterised by a dissociation constant (Kd) of 22.8 nM. Besides, the koff – broadly, a measure of how fast the partners let go of each other – in assay [3] came to 0.0601 s⁻¹. For the same molecule, the kon – broadly, a measure of how fast the partners come together – in assay [3] is 2.63e+06 M⁻¹ s⁻¹. For the same molecule, the MFI in assay [4] is 29.9. Further, the EC50 (read off the curve) (in general, the midpoint of the concentration-response curve) is approximately 0.01 µg/mL in assay [5] and approximately 0.1 µg/mL in assay [6].

B2: anti-BCMA IgG antibody 5A6 (antibody, V domains shown)
VH: EVQLLESGGGLVQPGGSLRLSCAASGFTFSNYGVHWVRQAPGKGLEWVSYISYSGGTYYNPSLKSRFTISRDNSKNTLYLQMNSLRAEDTAVYYCARDSDDFGFDYWGQGTLVTVSS
VL: QSVLTQPPSASGTPGQRVTISCQGDSLRSYYVNWYQQLPGTAPKLLIYDHSKRPTGVPDRFSGSKSGTSASLAISGLRSEDEADYYCQSYDSSTVVFGGGTKLTVLG
notes: also called 5A6 WT; 5A6 antibody
As to B2, in assay [3], the affinity, expressed as Kd, was 62.4 nM; the koff was 0.0249 s⁻¹; the kon is 399000 M⁻¹ s⁻¹. Besides, in assay [4], the MFI was found to be 100. In assay [5], the binding result was “no binding (tested: about 30 µg/ml)”. The “EC50 (read off the curve)” value in assay [6] is approximately 0.1 µg/mL.
